Reference: article PMC5602324
Read-outs that look alike come from different tables or passages of the source. Blank lines part the entries; values can stand above or below the molecule they belong to.

Tests used:
[1] = biological target: microtubule (tubulin) (Sus scrofa) (UniProt Q2XVP4); conditions: cited from earlier work
[2] = biological target: microtubule (tubulin) (Sus scrofa) (UniProt Q2XVP4); conditions: cited from earlier work; remark: listed apart in the source
[3] = biological target: microtubule (tubulin) (Sus scrofa) (UniProt Q2XVP4); conditions: cited from earlier work; remark: listed apart in the source
[4] = biological target: paclitaxel-stabilised microtubules (polymerised αβ-tubulin) (bovine) (UniProt Q6B856)
[5] = biological target: paclitaxel-stabilised microtubules (polymerised αβ-tubulin) (bovine) (UniProt Q6B856); assay: co-sedimentation; ADP.AlFx state (1 mM nucleotide); 2.5 μM MKLP2-MD with 0–10 μM polymerised tubulin (paclitaxel-stabilised MTs), BRB80 plus 25 mM NaCl, 25°C, 100,000 × g; quadratic fit assuming 1:1 motor:tubulin dimer; apparent
[6] = biological target: paclitaxel-stabilised microtubules (polymerised αβ-tubulin) (bovine) (UniProt Q6B856); assay: co-sedimentation; no nucleotide (NN, apyrase-treated); 2.5 μM MKLP2-MD with 0–10 μM polymerised tubulin (paclitaxel-stabilised MTs), BRB80 plus 25 mM NaCl, 25°C, 100,000 × g; quadratic fit assuming 1:1 motor:tubulin dimer; apparent
[7] = biological target: paclitaxel-stabilised microtubules (polymerised αβ-tubulin) (bovine) (UniProt Q6B856); assay: co-sedimentation; AMPPNP state (1 mM nucleotide); 2.5 μM MKLP2-MD with 0–10 μM polymerised tubulin (paclitaxel-stabilised MTs), BRB80 plus 25 mM NaCl, 25°C, 100,000 × g; quadratic fit assuming 1:1 motor:tubulin dimer; apparent
[8] = biological target: paclitaxel-stabilised microtubules (polymerised αβ-tubulin) (bovine) (UniProt Q6B856); assay: co-sedimentation; ADP state (1 mM ADP); 2.5 μM MKLP2-MD with 0–10 μM polymerised tubulin (paclitaxel-stabilised MTs), BRB80 plus 25 mM NaCl, 25°C, 100,000 × g; quadratic fit assuming 1:1 motor:tubulin dimer; apparent
[9] = biological target: paclitaxel-stabilised microtubules (polymerised αβ-tubulin) (bovine) (UniProt Q6B856); remark: listed apart in the source

Molecule: Kin3 (Kif1a) motor domain (from UniProt P33173)
Kd [1]: 5.9 nM
Kd [2]: 4.2 nM
Kd [3]: 6.8 nM

MT-stimulated steady-state ATPase, K0.5,MT (Michaelis Menten fit of velocity against [tubulin]) [4]: 1.07 µM
Kd [5]: 355 nM
Kd [6]: 43 nM
Kd [7]: 43 nM
Kd [8]: 363 nM
B1: MKLP2 motor domain, construct 25–520 (domain or fragment)
chain: ESTAADLRSVVRKDLLSDCSVISASLEDKQALLEDTSEKVKVYLRIRPFLTSELDRQEDQGCVCIENTETLVLQAPKDSFALKSNERGVGQATHKFTFSQIFGPEVGQVAFFNLTMKEMVKDVLKGQNWLIYTYGVTNSGKTYTIQGTSKDAGILPQSLALIFNSLQGQLHPTPDLKPLLSNEVIWLDSKQIRQEEMKKLSLLIGGLQEEELSTSVKKRVHTESRIGASNSFDSGVAGLSSTSQFTSSSQLDETSQLWAQPDTVPVSVPADIRFSVWISFFEIYNELLYDLLEPPSHQHKRQTLRLCEDQNGNPYVKDLNWIHVRDVEEAWKLLKVGRKNQSFASTHMNQQSSRSHSIFSIRILHLQGEGDIVPKISELSLCDLAGSERCKHQKSGERLKEAGNINTSLHTLGRCIAALRQNQQNRSKQNLIPFRDSKLTRVFQGFFTGRGRSCMIVNVNPCASTYDETLHAAKFSALASQLVHAPPVHLGIPSLH

MT-stimulated steady-state ATPase, K0.5,MT (Michaelis Menten fit of velocity against [tubulin]) [9]: 0.93 µM
B2: MKLP2 motor domain, construct 1–520 (domain or fragment)
chain: MSHRILSPPAGLLSDEDVVDSPILESTAADLRSVVRKDLLSDCSVISASLEDKQALLEDTSEKVKVYLRIRPFLTSELDRQEDQGCVCIENTETLVLQAPKDSFALKSNERGVGQATHKFTFSQIFGPEVGQVAFFNLTMKEMVKDVLKGQNWLIYTYGVTNSGKTYTIQGTSKDAGILPQSLALIFNSLQGQLHPTPDLKPLLSNEVIWLDSKQIRQEEMKKLSLLIGGLQEEELSTSVKKRVHTESRIGASNSFDSGVAGLSSTSQFTSSSQLDETSQLWAQPDTVPVSVPADIRFSVWISFFEIYNELLYDLLEPPSHQHKRQTLRLCEDQNGNPYVKDLNWIHVRDVEEAWKLLKVGRKNQSFASTHMNQQSSRSHSIFSIRILHLQGEGDIVPKISELSLCDLAGSERCKHQKSGERLKEAGNINTSLHTLGRCIAALRQNQQNRSKQNLIPFRDSKLTRVFQGFFTGRGRSCMIVNVNPCASTYDETLHAAKFSALASQLVHAPPVHLGIPSLH
